Measurements reported in EP0368684A1.

Columns and labels:
[1] = target: hen egg white lysozyme (hen) (UniProt P00698); assay: fluorescence quench titration with lysozyme
[2] = target: hen egg white lysozyme (hen) (UniProt P00698); assay: calculated from the on-rate and off-rate of the stopped-flow analysis
[3] = target: hen egg white lysozyme (hen) (UniProt P00698); assay: fluorescence quench titration, VHLYS concentration from quantitative amino acid analysis; conditions: scale: mole of lysozyme per mole of VHLYS domain

Chain of UniProt P00698 (P00698 19-147 limits assumed): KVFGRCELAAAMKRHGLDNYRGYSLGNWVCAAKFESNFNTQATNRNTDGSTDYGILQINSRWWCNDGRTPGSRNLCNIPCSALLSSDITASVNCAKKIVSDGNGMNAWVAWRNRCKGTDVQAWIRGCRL

Kd [1]: 0.012 µM | Kd [2]: 0.019 µM | stoichiometry (mole of lysozyme per mole of VHLYS domain) [3]: 1.2
Substance: VHLYS domain (heavy chain variable domain of the D1.3 anti-lysozyme antibody)
